Data taken from the nanobody polyreactivity screen of Harvey et al. (2022).

Experiment: yeast display, Sf9 membrane polyspecificity reagent, FACS + sequencing; frameworks hold sequencing errors
Procedure, shortened: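 Polyreactivity labels are assigned by the sorting gate from which each nanobody was recovered. The gates were low and high (top ~1%), set on anti-HA fluorescence for expression and streptavidin fluorescence for reagent binding. Before sorting, galactose-induced (36–48 hours) yeast display cells were stained for 1 hour at 4 °C with 10% biotinylated, detergent-solubilized Sf9 membrane reagent.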

Sequence	polyreactivity (PSR sort gate)
QVQLVESGGGLVQAGGSLRLSCAASGRTFDYYAMGWFRQAPGKERELVAAISSSGGRTYYADSVKGRFTISRDNAKNTVYLQMNSLKPEDTAVYYCNAVVSRNYEYWGQGTQVTVSS	high polyreactivity
QVQLVESGGGLVQAGGSLRLSCAASGLIFYYYAMGWYRPAPGKERELVAAISRRGGSTYYADSVKGRFTISRDNAKNTVYLQMNSLKPEDTAVYYCNKYRSYWSGPSYWREYDYWGQGTQVTVSS	high polyreactivity
QVQLVESGGGLVQAGGSLRLSCAASGSTFSANDMGWYRQAPGKEREFDAAITTSDDSTYYADSVKGRFTISRDNAKNTVYLQMNSVKPEDTAVYYCNAYSGYSFFGLGFFYKYDYWGQGTQVTVSS	low polyreactivity
QVQLEESGGGLVQAGGSLRFSCAASGSIFDYNAMGWYRQAPGTERELVAAITYSGGTTYADSVKGRFTISRDNAKNTVYLQMNSLKPEDTAVDYCAATSYDRFAYYYWGQGTQVTVSS	low polyreactivity
QVQHVESGVGLVQAGGSLRLSCASSGLTFQYYSMGWYRQAPGKERELVAAISRRGGSTYYADSVKGRFTISRDNAKNTVYLQMNSLKPEDTAVYYCARYSYRGTNVRYDYWGQGTQVTVSS	high polyreactivity
EVQLVESGGGLVQAGGSLRLSCAASGRTFSYYAMGCYRQAPGKERELVAAISGGGSTNYADSVKGRFTISRDNAKYTVYLQMNSLKPEDTAVYYCAVGGFLRYRISLGKSYYYWGQGTQVTVSS	high polyreactivity
KVQLLQTGRGLVQAGGSLRISCAASGRLFWYSDLVWYRQAPGKESELVAAISQRGGSTYYADSVKGSFTISRDNAKNTVYLQMISLKPEDTAGYYCNADFWWAYYPWEYDYWGQGTLVTVSS	high polyreactivity
QVQLVESGGGLVQAGGSLRLSCAASGRIFAYYAMGWYRQAPGKERELVAGINSGGGSTYYADSVKGRFTISRDNAKNTVYLQMNSLKPEDNAVSYCATYYYRRSNRSSTSYDYWGQGTQVTVSS	high polyreactivity
QVQLVESVGGLFQAGGSLRLSCAASGSIFAYNTMGWYRQAPGKEREFVAAISWRGGSTYYADSVKGHFTISGDNAKNTFYLQMNSLKPEDTAVYYCNARYRNTFYSRRYDYWGQGTQVTVSS	low polyreactivity
QVQLVESGGGLVQAGGSLRLSCAASGSTFTRNAMGWYRQAPGKERELVATISRSGGSTYYADSVKGRFTISRDNAKNTVYLQMNSLKPEDTAVYYCARPYQYYKFYSHDYWGQGTQVTVSS	high polyreactivity
QVQLVESGGGLVQAGGSLRLSCAASGLILRKYAMGWYRQAPGKEREFVAAITQTGSRTYYADSVKGRFTISRDNAKNTVYLQMNSLKPEDTAVYYCNAVNYRSSRDSGYWGQGTQVTVSS	high polyreactivity
QVQLVESGGGLVQAGGSLRLIFAASGFIFETYAMGWYRQAPGKERELVAAISRGASTYYADSVKGRFTISRDNAKNTVYLQMNSLKPEDTAVYDCAAKRLSWHRYGYWGQGTQVTVSS	low polyreactivity
QVQLVESGGGLVQAGGSLRLSCAASGFTFRRNAMGWYRQAPGKERELVAAISRGGSSTYYADSVKGRFTISRDNAKNTVYLQMNSLKPEDTAVYYCGARIPNQQGYGYWGQVTQVTVSS	high polyreactivity
QVQLVESGGGLVQAGGSLRLSCAAYGRIFAYYTMGWYRQAPGKERELVAAINQSGGSTYYADSVKGRFTISRDNAKNTVYFQMNSLKPEDTAVYYCAAKPYSLYARRYAYDYWGQGTQVTVSS	low polyreactivity
QVQRVESGRGLVHAGGRLRLSCAASGSIFTYYPMGWSRPAPGKERELVAAISYSGGTTYYADSVKGRFTISRDNAKNTVYLQMNSLKPEDTAVYYCNVDADYESKWLSVGYDYWGQGTQVTVSS	low polyreactivity
QVQLVESGGGLVQAGGSLRLSCAASGGTFQSNAKGWYRQAPGKERELVASITSRGSSTYYADSVKGRFTISRDNAKNTVYLQMNSLKPEDTAVFYCAKGRSLQMYYKGGIKGGYWGQGTQVTVSS	low polyreactivity
QVQLVESGGGLVQAGGSLRLSCAASGSTFYYYAMGWYRQAPGKERELVAAIDTSVDSTYYADSVKGRFTISRDNAKNTVYLQMNSLKPEDTAVYYCNARSRTGYTNRMYYWGQGTQVTVSS	high polyreactivity
QVQLVESGGGLVQAGGSLRLSSAASGSIFGRYVMGWYRQAPGKERELVATISSGGSTYYADSVKGRFTISRDNAKNTVYLQMNSLKPEVTAVYYCNADYGYEYDYWGQGTQVTVSS	low polyreactivity
QVQLVESGRGLVQAGGSLRLSCAASGRTFYLYAMVWNIQAPGKERELVAAITFNGGSTYYADSVKGRFTISRDNAKNTVYLQMNSLKPEDTAVYYCAARLSKRSGYYYWGQVTQVTVSS	high polyreactivity
QVQLVESGGGLVQAGGSLRLSCAASGSNFVKYVMGWSRQAPGKERELVAAITWRGGRTYYADSVKGRFTISRDNEKNTVYLQMNSLKPEDTAVYYCAAYDQSLYGRRYDYWGQGTQVTVST	high polyreactivity
QVQLVESGGGLVQAGGSLRLSCAASGYIFDRYAMGWYRQAPGKERELVAAISGRGGSTYYADSVKGRFTISRDNAKNTVSLQMNSLKPEDTAVYYCARDVYVRNGQRARYDSWGQGTQVTVSS	high polyreactivity
QVQLVESGGGLGQAGGSLRLSCAASGSTFKFYAMGWYRHAPGKERELVATISWTGGSTYYADSVKGRFTISRDNAKNTVYLQTNSLKPEDTAVYYCANRKTSYPVIWYTVNGRHYYWGQGTQVTVSS	low polyreactivity
QVQLVESGGGLDQAGGRLPLTWAASGFTFWKYAMGLYRQAPGKERELVAANSVSGGRTYYADSVKGRFTISRDNAKNTVSLQMNRLKPEDTAVYFCNATPWRPYVGGEYWGQGTQVTVSS	high polyreactivity
QVQLVESGGGLVQAGGSLRLSCAASGRIVVYNVMGGYRQAPGKERELVAAISWGTGSTYADSVKGRFTISRDNAKNTVYIQMNSLKPEDTAVYYCAADSFIPPYDHWGQGTQVTVSS	low polyreactivity
QVQIEESGGGLVQAGGSLPLSCAASGTIFKYYTRGWYRLAPGKERELFAAISGSGGTTYYADSVKGRFTISRDNAKNTVYLQMNSLKPEDTAVYYCATAYYRAFRGDYWGQGTQVTVSS	high polyreactivity
QFQLVESGGGLVQAGGSLRLSCAASGRTFGFNAMGWYIQAPGKERELVAAISGSGGRTYYADSVKGRFTISRDKPKNTVYLQMNSLKPEDTAVYYCAAGARRGGSGYLGQGTQVTVSS	high polyreactivity
QVQLVESGGGLVQAGGSLRLSCAASGSNFLCYTMGWYRQAPGKERELVAAISRTGGSTYYADSVKGRFTISRDNAKNTVYLQRNSLKPEDTAVYYCAASLYSITRARYDYWGQGTQVTVSS	high polyreactivity
QVQLVESGGGLVQAGGSLRLSCAASGLTFGYNAMGWYRQAPGKERELVAAISSNGGRTYYADSVKGRFTISRDNAKNTVYLQMNSLKPEDTAVYYCNVVYSRSRPYDYWGQGTQVTVSS	high polyreactivity
QVQIVESGGGLVQAGGSLPLSCDASGITFERYDMGWYRQAPGKERELGAAISTTGGRTYYADSVKGRFTISRDNAKNSVYLQMNSLKPEDTAVYYCAARYTTRRRYDYWGQGTQVTVSS	high polyreactivity
QVQLVESGGGLVQAGGSLRLSCAASGSTFLRNAMGWYRQAPGKERELVATISRTGGTTYYADSVKGRFTISRDNAKTTVYLQMNSLKPEDTAVYYCAAYSKYGQHYDYWGQGTQVTVSS	high polyreactivity
